{"source": "paper PMC6119766", "about": "“Terminal Regions Confer Plasticity to the Tetrameric Assembly of Human HspB2 and HspB3” (Journal of Molecular Biology, 2018)", "binders": {"B1": {"name": "human HspB2 (natural protein, UniProt Q16082 1-182, looked up)", "chain": "MSGRSVPHAHPATAEYEFANPSRLGEQRFGEGLLPEEILTPTLYHGYYVRPRAAPAGEGSRAGASELRLSEGKFQAFLDVSHFTPDEVTVRTVDNLLEVSARHPQRLDRHGFVSREFCRTYVLPADVDPWRVRAALSHDGILNLEAPRGGRHLDTEVNEVYISLLPAPPDPEEEEEAAIVEP", "notes": "human HspB2 (small heat shock protein B2); Made together with HspB3 from one pET3a construct; also called HsB2; HspB2_Human; source: E. coli BL21(DE3), pET3a-HspB2/B3, purified (DEAE-Sepharose, Source 15Q)"}, "B2": {"name": "engineered human HspB3 with the C-terminal extension of human HspB2 (HspB3 + B2tail) (other)", "chain": "MAKIILRHLIEIPVRYQEEFEARGLEDCRLDHALYALPGPTIVDLRKTRAAQSPPVDSAAETPPREGKSHFQILLDVVQFLPEDIIIQTFEGWLLIKAQHGTRMDEHGFISRSFTRQYKLPDGVEIKDLSAVLCHDGILVVEVKDPVGTPEEEEEAAIVEP", "notes": "human HspB3 without its C-terminal lysine, which was replaced by the HspB2 tail; last 12 amino acids of human HspB2, residues 171-182; The results say the tail was added to the C-terminus; the methods say it replaced the C-terminal lysine (the reverse primer fits the methods); also called engineered HspB3 mutant; engineered mutant human HspB3; source: E. coli BL21(DE3), pET3a-HspB2/B3 mutant, …"}, "B3": {"name": "rat HspB3 (natural protein, UniProt Q9QZ58 1-152, looked up)", "chain": "MAKIILRHLIETPVRYQEEFEARGLEDCRLDHALYALPGPTIEDLRKARGTPKALAEDSDSAETPPGEGKSRFQILLDVVQFLPEDIIIQTFEGWLLIKAQHGTRMDEHGFISRSFTRQYKLPDGVETKDLSAILCHDGILVVEVKDPLETK", "notes": "rat HspB3, wild type; ultimate C-terminal residue K152; also called RnB3; HspB3_Rat"}, "B4": {"name": "human HspB3 (wild type) (natural protein, UniProt Q12988 1-150, looked up)", "chain": "MAKIILRHLIEIPVRYQEEFEARGLEDCRLDHALYALPGPTIVDLRKTRAAQSPPVDSAAETPPREGKSHFQILLDVVQFLPEDIIIQTFEGWLLIKAQHGTRMDEHGFISRSFTRQYKLPDGVEIKDLSAVLCHDGILVVEVKDPVGTK", "notes": "human HspB3 (small heat shock protein B3); HspB3 could not be purified alone; it is obtained only in complex with HspB2; also called HsB3; HspB3_Human; source: E. coli BL21(DE3), pET3a-HspB2/B3 wild type, purified with HspB2 (DEAE-Sepharose, Source 15Q)"}, "B5": {"name": "rat HspB2 (natural protein, UniProt O35878 1-182, looked up)", "chain": "MSGRTVPHAHPATAEYEFANPSRLGEQRFGEGLLPEEILTPTLYHGYYVRPRAARAGEGGRAGASELRLSEGKFQAFLDVSHFTPDEVTVRTVDNLLEVSARHPQRLDRHGFVSREFCRTYVLPADVDPWRVRAALSHDGILNLEAPRGGRHLDTEVNEVYISLLPAPPDPEEEEEVARVEP", "notes": "rat HspB2, wild type; C-terminal residues E172 to P182 seen by NMR; also called RnB2; HspB2_Rat"}}, "key": {"[1]": {"molecular_target": "the molecule itself", "experiment": "crystal structure; hanging drop at 21 °C; 3.9 Å; space group P3(1); three hetero-tetramers (12 chains) in the asymmetric unit"}, "human HspB3 (wild type)": {"molecular_target": "B4", "experiment": "SEC + native MS; HspB2/B3 complexes; Superdex 200 10/300 fractions nanoelectrosprayed at 10 μM in 200 mM ammonium acetate (pH 6.9)", "conditions": "both partners purified"}, "[2]": {"molecular_target": "B2", "experiment": "SEC + native MS; HspB2/B3 complexes; Superdex 200 10/300 fractions nanoelectrosprayed at 10 μM in 200 mM ammonium acetate (pH 6.9)", "conditions": "both partners purified"}, "[3]": {"molecular_target": "the molecule itself", "experiment": "SEC + native MS; HspB2/B3 complexes; Superdex 200 10/300 fractions nanoelectrosprayed at 10 μM in 200 mM ammonium acetate (pH 6.9)"}, "human HspB2 [4]": {"molecular_target": "B1", "experiment": "crystal structure; hanging drop at 21 °C; 3.9 Å; space group P3(1); three hetero-tetramers (12 chains) in the asymmetric unit", "conditions": "both partners purified"}, "human HspB2 [5]": {"molecular_target": "B1", "experiment": "SEC + native MS; HspB2/B3 complexes; Superdex 200 10/300 fractions nanoelectrosprayed at 10 μM in 200 mM ammonium acetate (pH 6.9)", "conditions": "both partners purified"}, "rat HspB2": {"molecular_target": "B5", "experiment": "SEC + native MS; HspB2/B3 complexes; Superdex 200 10/300 fractions nanoelectrosprayed at 10 μM in 200 mM ammonium acetate (pH 6.9)", "conditions": "both partners purified"}, "rat HspB3": {"molecular_target": "B3", "experiment": "SEC + native MS; HspB2/B3 complexes; Superdex 200 10/300 fractions nanoelectrosprayed at 10 μM in 200 mM ammonium acetate (pH 6.9)", "conditions": "both partners purified"}}, "data": [{"binder": "B1", "values": [{"measurement": "binding result", "setting": "[1]", "result": "binds"}, {"measurement": "stoichiometry N", "setting": "human HspB3 (wild type)", "result": 3, "unit": "HspB2 per HspB3"}, {"measurement": "stoichiometry N", "setting": "[2]", "result": 3, "unit": "HspB2 per HspB3"}]}, {"binder": "rat HspB2/B3 hetero-tetramer (complex, rat HspB2, as m5; rat HspB3, as m6; The protomer that forms the higher oligomers; also called wild-type rat HspB2/B3; copies: 3 + 1) chain 1: MSGRTVPHAHPATAEYEFANPSRLGEQRFGEGLLPEEILTPTLYHGYYVRPRAARAGEGGRAGASELRLSEGKFQAFLDVSHFTPDEVTVRTVDNLLEVSARHPQRLDRHGFVSREFCRTYVLPADVDPWRVRAALSHDGILNLEAPRGGRHLDTEVNEVYISLLPAPPDPEEEEEVARVEP chain 2: MAKIILRHLIETPVRYQEEFEARGLEDCRLDHALYALPGPTIEDLRKARGTPKALAEDSDSAETPPGEGKSRFQILLDVVQFLPEDIIIQTFEGWLLIKAQHGTRMDEHGFISRSFTRQYKLPDGVETKDLSAILCHDGILVVEVKDPLETK", "values": [{"measurement": "stoichiometry N", "setting": "[3]", "result": "8 to 24 chains (the hetero-tetramer has 4)"}]}, {"binder": "B2", "values": [{"measurement": "binding result", "setting": "human HspB2 [4]", "result": "binds"}]}, {"binder": "B3", "values": [{"measurement": "binding result", "setting": "human HspB2 [5]", "result": "binds"}]}, {"binder": "B4", "values": [{"measurement": "binding result", "setting": "rat HspB2", "result": "binds"}]}, {"binder": "B5", "values": [{"measurement": "stoichiometry N", "setting": "rat HspB3", "result": 3, "unit": "HspB2 per HspB3"}]}]}
